Reference: patent US20260098059A1 (ENDOMET BIOSCIENCES, published 2026)
Several values for one entry are separate records, joined by “and”; a condition that tells them apart may be missing. Equal values may be shown once. Values belong to the binder of their own block, whether it stands above or below them. [ ]: non-standard residue; d: D form. The star is where a group is joined. NMeW = CN[C@@H](Cc1c[nH]c2ccccc12)C(=O)O; Stearoyl = CCCCCCCCCCCCCCCCCC(=O)*; αMeV = CC(C)[C@](C)(N)C(=O)O; αMeS = C[C@](N)(CO)C(=O)O

Legend:
β-catenin [1] = molecular target: T1, β-catenin (UniProt P35222 134-665, limits assumed, biotinylated in the SPR and plate assays); experiment: competitive FP
T1 construct: also called beta catenin; biotinylated β-catenin
T1 sequence (looked up): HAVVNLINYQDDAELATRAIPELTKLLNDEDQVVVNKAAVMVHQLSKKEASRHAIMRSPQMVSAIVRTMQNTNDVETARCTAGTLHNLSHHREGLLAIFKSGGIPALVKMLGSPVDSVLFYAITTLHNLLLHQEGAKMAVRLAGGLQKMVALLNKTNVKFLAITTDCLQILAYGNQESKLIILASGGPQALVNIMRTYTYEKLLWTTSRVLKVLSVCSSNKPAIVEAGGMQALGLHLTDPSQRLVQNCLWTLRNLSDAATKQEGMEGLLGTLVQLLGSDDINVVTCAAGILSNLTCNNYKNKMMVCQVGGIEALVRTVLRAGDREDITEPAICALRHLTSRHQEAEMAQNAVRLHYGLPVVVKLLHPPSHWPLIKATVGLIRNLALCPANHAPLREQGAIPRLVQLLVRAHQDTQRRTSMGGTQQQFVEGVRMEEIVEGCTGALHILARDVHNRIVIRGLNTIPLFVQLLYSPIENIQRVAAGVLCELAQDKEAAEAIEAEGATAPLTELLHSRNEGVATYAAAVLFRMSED
How it was run: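 Competitive fluorescence polarization with inhibitor peptide serially diluted from 10 nM to 30 uM; polarization read at 470 nm excitation, 520 nm emission. Experiments performed three times.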

β-catenin [2] = molecular target: T1, β-catenin; experiment: SPR (Biacore); SPR (Biacore), direct binding
Description: (§1) Biotinylated protein (beta catenin) was immobilized on a high-affinity streptavidin (SA) sensor chip (GE). Peptide at increasing concentrations was flowed over in HBS EP+ buffer at room temperature according to manufacturer's instructions. The maximum binding capacity of the surface (response at saturation) was calculated using the Biacore® system (GE) instructions and binding was measured at each concentration as a data point. The binding levels were determined over a range of analyte concentrations of at least from 20% to 80% saturation of the surface. On rates, off rates, and KD were calculated using Biacore® Insight Evaluation Software software (GE).

β-catenin [3] = molecular target: T1, β-catenin; experiment: cell-based or functional assay
[4] = molecular target: T2, β-catenin in mouse endometriosis lesions (mouse, UniProt Q02248 2-781); experiment: immunofluorescence co-localisation in mouse lesions
T2 construct: Endogenous protein in fixed tissue sections; also called cytoplasmic β-catenin
T2 sequence (looked up): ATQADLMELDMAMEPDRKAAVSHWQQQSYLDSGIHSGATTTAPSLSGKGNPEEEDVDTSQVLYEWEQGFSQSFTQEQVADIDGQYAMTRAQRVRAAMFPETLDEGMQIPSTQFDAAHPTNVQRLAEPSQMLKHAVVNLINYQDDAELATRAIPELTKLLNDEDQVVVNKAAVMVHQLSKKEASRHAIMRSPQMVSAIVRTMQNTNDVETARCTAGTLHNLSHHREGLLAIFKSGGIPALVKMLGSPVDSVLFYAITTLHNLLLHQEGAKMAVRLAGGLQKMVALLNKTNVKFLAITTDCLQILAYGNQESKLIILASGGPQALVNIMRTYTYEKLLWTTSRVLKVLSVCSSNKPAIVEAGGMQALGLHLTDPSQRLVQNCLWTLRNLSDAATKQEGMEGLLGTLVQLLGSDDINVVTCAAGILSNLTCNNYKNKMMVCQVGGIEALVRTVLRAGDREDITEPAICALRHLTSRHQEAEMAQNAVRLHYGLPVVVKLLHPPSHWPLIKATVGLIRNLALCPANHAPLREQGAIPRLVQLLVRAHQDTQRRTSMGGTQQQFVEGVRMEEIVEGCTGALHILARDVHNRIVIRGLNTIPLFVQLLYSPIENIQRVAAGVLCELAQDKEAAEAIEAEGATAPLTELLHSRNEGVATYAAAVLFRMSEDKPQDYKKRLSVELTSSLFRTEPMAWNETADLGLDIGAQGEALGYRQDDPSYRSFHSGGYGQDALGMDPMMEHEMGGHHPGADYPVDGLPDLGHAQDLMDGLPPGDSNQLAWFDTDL
Description: Endometriosis was established in a mouse model of disease. Mice were allowed to establish endometriosis for 3 weeks. […] To assess the localization of the peptides and β-catenin, lesions from the endometriosis mouse model were assessed. On the last day of treatment, in order to visualize the peptide localization to the lesion(s), mice were dosed with a biotinylated tagged peptide therapeutic or control. Mice were euthanized, lesions were removed, and fixed in formalin for histology and immunohistochemistry. […] Immunohistochemical negative controls were performed on lesion sections from all treatment groups using IgG non-specific antibodies (Rabbit-IgG, AbCam 1:100).

β-catenin [5] = molecular target: T1, β-catenin; experiment: SPR (Biacore)
Description: as §1

B2: SEQ ID NO: 18 (peptide)
peptide: KAESILDEHVQRVWG
HELM: PEPTIDE1{K.[meA].E.S.I.L.D.E.H.V.Q.R.V.W.G}$PEPTIDE1,PEPTIDE1,1:R3-15:R2$$$V2.0
SMILES: CC[C@H](C)[C@@H]1NC(=O)[C@H](CO)NC(=O)[C@H](CCC(=O)O)NC(=O)[C@H](C)N(C)C(=O)[C@@H](N)CCCCNC(=O)CNC(=O)[C@H](Cc2c[nH]c3ccccc23)NC(=O)[C@H](C(C)C)NC(=O)[C@H](CCCNC(=N)N)NC(=O)[C@H](CCC(N)=O)NC(=O)[C@H](C(C)C)NC(=O)[C@H](Cc2c[nH]cn2)NC(=O)[C@H](CCC(=O)O)NC(=O)[C@H](CC(=O)O)NC(=O)[C@H](CC(C)C)NC1=O
Kd (β-catenin [1]): > 30000 nM
Kd (β-catenin [2]): 76 nM
Wnt Reporter EC50 (β-catenin [3]): > 30000 nM

B4: SEQ ID NO: 14 (peptide)
peptide: H-MSRMWFLISFWMG-OH
Kd (β-catenin [1]): > 30000 nM
Kd (β-catenin [2]): 250 nM
Wnt Reporter EC50 (β-catenin [3]): ≤ 7500 nM

B6: SEQ ID NO: 270 (Ac-Bcl9(347-381)-AβAβK-CONH2) (peptide)
peptide: NPDGLSQEQLEHRERSLQTLRDIQRMLFPDEKEFTAAK
HELM: PEPTIDE1{[ac].N.P.D.G.L.S.Q.E.Q.L.E.H.R.E.R.S.L.Q.T.L.R.D.I.Q.R.M.L.F.P.D.E.K.E.F.T.[bAla].[bAla].K.[am]}$$$$V2.0
SMILES: CC[C@H](C)[C@H](NC(=O)[C@H](CC(=O)O)NC(=O)[C@H](CCCNC(=N)N)NC(=O)[C@H](CC(C)C)NC(=O)[C@@H](NC(=O)[C@H](CCC(N)=O)NC(=O)[C@H](CC(C)C)NC(=O)[C@H](CO)NC(=O)[C@H](CCCNC(=N)N)NC(=O)[C@H](CCC(=O)O)NC(=O)[C@H](CCCNC(=N)N)NC(=O)[C@H](Cc1c[nH]cn1)NC(=O)[C@H](CCC(=O)O)NC(=O)[C@H](CC(C)C)NC(=O)[C@H](CCC(N)=O)NC(=O)[C@H](CCC(=O)O)NC(=O)[C@H](CCC(N)=O)NC(=O)[C@H](CO)NC(=O)[C@H](CC(C)C)NC(=O)CNC(=O)[C@H](CC(=O)O)NC(=O)[C@@H]1CCCN1C(=O)[C@H](CC(N)=O)NC(C)=O)[C@@H](C)O)C(=O)N[C@@H](CCC(N)=O)C(=O)N[C@@H](CCCNC(=N)N)C(=O)N[C@@H](CCSC)C(=O)N[C@@H](CC(C)C)C(=O)N[C@@H](Cc1ccccc1)C(=O)N1CCC[C@H]1C(=O)N[C@@H](CC(=O)O)C(=O)N[C@@H](CCC(=O)O)C(=O)N[C@@H](CCCCN)C(=O)N[C@@H](CCC(=O)O)C(=O)N[C@@H](Cc1ccccc1)C(=O)N[C@H](C(=O)NCCC(=O)NCCC(=O)N[C@@H](CCCCN)C(N)=O)[C@@H](C)O
notes: Bcl9 residues 347-381, acetylated, with beta-Ala-beta-Ala-K added, amidated
Kd (β-catenin [1]): > 30000 nM
Kd (β-catenin [2]): 546 nM

B7: Peptide 4 (SEQ ID NO: 393/500) (peptide)
peptide: Stearoyl-W[NMeW]E[αMeS]ILDEH[αMeV]QRVW-OH
notes: 393 used
Proliferation IC50, Endo cells (β-catenin [3]): 5000 nM
Proliferation IC50, Wnt dependent cells (β-catenin [3]): 1700 nM
Wnt Reporter EC50 (β-catenin [3]): ≤ 7500 nM
binding result [4]: binds

B8: SEQ ID NO: 29 (peptide)
peptide: KMPLAISWFEHIG
HELM: PEPTIDE1{K.M.P.L.[meA].I.S.W.F.E.H.I.G}$PEPTIDE1,PEPTIDE1,1:R3-13:R2$$$V2.0
SMILES: CC[C@H](C)[C@@H]1NC(=O)[C@H](Cc2c[nH]cn2)NC(=O)[C@H](CCC(=O)O)NC(=O)[C@H](Cc2ccccc2)NC(=O)[C@H](Cc2c[nH]c3ccccc23)NC(=O)[C@H](CO)NC(=O)[C@H]([C@@H](C)CC)NC(=O)[C@H](C)N(C)C(=O)[C@H](CC(C)C)NC(=O)[C@@H]2CCCN2C(=O)[C@H](CCSC)NC(=O)[C@@H](N)CCCCNC(=O)CNC1=O
Kd (β-catenin [1]): > 400 nM and ≤ 1000 nM
Wnt Reporter EC50 (β-catenin [3]): > 30000 nM
Kd (β-catenin [5]): 1030 nM

B9: SEQ ID NO: 21 (peptide)
peptide: KMIRMWFLISFWG
modifications: cyclo-H2N-K(Aoc*)MIRM-NmeW-FLISFWG*
Kd (β-catenin [1]): > 30000 nM
Kd (β-catenin [2]): 337 nM
Wnt Reporter EC50 (β-catenin [3]): > 30000 nM

Next, values leading:

Kd (β-catenin [1]): > 30000 nM
Kd (β-catenin [2]): 48 nM
Wnt Reporter EC50 (β-catenin [3]): > 30000 nM
B1: SEQ ID NO: 20 (peptide)
peptide: KWAQSILNQHVQRVWG
HELM: PEPTIDE1{K.W.[meA].Q.S.I.L.N.Q.H.V.Q.R.V.W.G}$PEPTIDE1,PEPTIDE1,1:R3-16:R2$$$V2.0
SMILES: CC[C@H](C)[C@@H]1NC(=O)[C@H](CO)NC(=O)[C@H](CCC(N)=O)NC(=O)[C@H](C)N(C)C(=O)[C@H](Cc2c[nH]c3ccccc23)NC(=O)[C@@H](N)CCCCNC(=O)CNC(=O)[C@H](Cc2c[nH]c3ccccc23)NC(=O)[C@H](C(C)C)NC(=O)[C@H](CCCNC(=N)N)NC(=O)[C@H](CCC(N)=O)NC(=O)[C@H](C(C)C)NC(=O)[C@H](Cc2c[nH]cn2)NC(=O)[C@H](CCC(N)=O)NC(=O)[C@H](CC(N)=O)NC(=O)[C@H](CC(C)C)NC1=O

Kd (β-catenin [1]): > 30000 nM
Kd (β-catenin [2]): 59 nM
Wnt Reporter EC50 (β-catenin [3]): > 30000 nM
B3: SEQ ID NO: 19 (peptide)
peptide: KAQSILDEHVQRVWG
HELM: PEPTIDE1{K.[meA].Q.S.I.L.D.E.H.V.Q.R.V.W.G}$PEPTIDE1,PEPTIDE1,1:R3-15:R2$$$V2.0
SMILES: CC[C@H](C)[C@@H]1NC(=O)[C@H](CO)NC(=O)[C@H](CCC(N)=O)NC(=O)[C@H](C)N(C)C(=O)[C@@H](N)CCCCNC(=O)CNC(=O)[C@H](Cc2c[nH]c3ccccc23)NC(=O)[C@H](C(C)C)NC(=O)[C@H](CCCNC(=N)N)NC(=O)[C@H](CCC(N)=O)NC(=O)[C@H](C(C)C)NC(=O)[C@H](Cc2c[nH]cn2)NC(=O)[C@H](CCC(=O)O)NC(=O)[C@H](CC(=O)O)NC(=O)[C@H](CC(C)C)NC1=O

Kd (β-catenin [1]): > 30000 nM
Kd (β-catenin [2]): 120 nM
Wnt Reporter EC50 (β-catenin [3]): > 15000 nM and ≤ 22500 nM
B5: SEQ ID NO: 16 (peptide)
peptide: MSRMWFLISFWAG
HELM: PEPTIDE1{M.S.R.M.W.F.L.I.S.F.W.[meA].G}$$$$V2.0
SMILES: CC[C@H](C)[C@H](NC(=O)[C@H](CC(C)C)NC(=O)[C@H](Cc1ccccc1)NC(=O)[C@H](Cc1c[nH]c2ccccc12)NC(=O)[C@H](CCSC)NC(=O)[C@H](CCCNC(=N)N)NC(=O)[C@H](CO)NC(=O)[C@@H](N)CCSC)C(=O)N[C@@H](CO)C(=O)N[C@@H](Cc1ccccc1)C(=O)N[C@@H](Cc1c[nH]c2ccccc12)C(=O)N(C)[C@@H](C)C(=O)NCC(=O)O
